# Experimental data published in article PMC3695782, “Hypersusceptibility mechanism of Tenofovir-resistant HIV to EFdA”.
# Biological target: HIV-1 reverse transcriptase WT (Human immunodeficiency virus type 1, UniProt P04585;P04585 588-1147;588-1027)
# Test: site-specific Fe2+ footprinting; 6 mM MgCl2, 1 uM EFdA-TP, 1 mM Fe2+, varied dTTP; RT 600 nM, T/P 100 nM; mainly pre-translocation; Footprinting: 120 mM sodium cacodylate pH 7, 20 mM NaCl, 6 mM MgCl2, 1 uM EFdA-TP, 7 min pre-incubation with dTTP, then 1 mM ammonium iron sulfate 5 min; temperature not given; EMSA conditions not in the material
# Conditions: protein: recombinant; copies: 1;1; label: 5'-Cy3 on template Td43; template 5' overhang 12 nt after EFdA-MP addition; other end blunt
binder,measurement,value
"Td43/Pd30-EFdA-MP (dsDNA, EFdA-MP (4'-ethynyl-2-fluoro-2'-deoxyadenosine monophosphate) as 3'-terminal nucleotide of primer, written A; added in situ by RT to Pd30 (S9)) DNA 1: CCATAGATAGCATTGGTGCTCGAACAGTGACAATCAGTGTAGA DNA 2: TCTACACTGATTGTCACTGTTCGAGCACCAA",binding result,binds
